Experimental data taken from publication PMC12532918.

Target: T1, CXCR4-CFP / CXCR4-YFP (human), P61073
T1 chain: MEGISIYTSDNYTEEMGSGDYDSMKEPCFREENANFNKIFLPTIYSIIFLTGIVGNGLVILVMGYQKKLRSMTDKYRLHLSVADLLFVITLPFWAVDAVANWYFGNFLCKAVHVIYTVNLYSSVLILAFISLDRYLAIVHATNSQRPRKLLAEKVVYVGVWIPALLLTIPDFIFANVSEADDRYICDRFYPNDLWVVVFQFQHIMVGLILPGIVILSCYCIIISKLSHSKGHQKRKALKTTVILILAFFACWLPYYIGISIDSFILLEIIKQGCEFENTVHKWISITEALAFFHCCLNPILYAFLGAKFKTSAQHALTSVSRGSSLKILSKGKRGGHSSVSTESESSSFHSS
Assay: FRET or BRET; FLIM (CFP donor lifetime) in live HEK-293T cells transfected with CXCR4-YFP/CXCR4-CFP or 5HTR2B-YFP/CXCR4-CFP (15 µg : 9 µg); CXCR4-CFP alone as reference; untreated or ChOx (25 U/mL, 2 h, 37 °C); without or with CXCL12 (100 nM, 30 min)
Settings: remark: other sources report otherwise

- CFP donor lifetime (CFPτ), ChOx-treated cells (2.03 ns for CXCR4-CFP alone): 1.82 ns
- CFP donor lifetime (CFPτ), ChOx-treated cells with CXCL12: 1.75 ns
- CFP donor lifetime (CFPτ), untreated cells (2.03 ns for CXCR4-CFP alone): 1.7 ns
- CFP donor lifetime (CFPτ), untreated cells with CXCL12: 1.61 ns
B1: CXCR4-CFP / CXCR4-YFP, P61073 1-352 (receptor)
chain: MEGISIYTSDNYTEEMGSGDYDSMKEPCFREENANFNKIFLPTIYSIIFLTGIVGNGLVILVMGYQKKLRSMTDKYRLHLSVADLLFVITLPFWAVDAVANWYFGNFLCKAVHVIYTVNLYSSVLILAFISLDRYLAIVHATNSQRPRKLLAEKVVYVGVWIPALLLTIPDFIFANVSEADDRYICDRFYPNDLWVVVFQFQHIMVGLILPGIVILSCYCIIISKLSHSKGHQKRKALKTTVILILAFFACWLPYYIGISIDSFILLEIIKQGCEFENTVHKWISITEALAFFHCCLNPILYAFLGAKFKTSAQHALTSVSRGSSLKILSKGKRGGHSSVSTESESSSFHSS
